# Test results published in article PMC2952845.
# Where two headings read alike, the source gives them in different places.
# Tests used:
# Test in all cases: EMSA
# [1] = target: T1, Runx1 Runt domain (CBF alpha2);CBFbeta (human?;human?, UniProt Q01196;Q13951 50-183;2-135, |)
# [2] = target: T1, Runx1 Runt domain (CBF alpha2);CBFbeta; remark: listed apart in the source
# [3] = target: T1, Runx1 Runt domain (CBF alpha2);CBFbeta; remark: listed apart in the source
# [4] = target: T1, Runx1 Runt domain (CBF alpha2);CBFbeta; remark: listed apart in the source
# T1 sequence (Q01196 50-183, chain 1 of 2): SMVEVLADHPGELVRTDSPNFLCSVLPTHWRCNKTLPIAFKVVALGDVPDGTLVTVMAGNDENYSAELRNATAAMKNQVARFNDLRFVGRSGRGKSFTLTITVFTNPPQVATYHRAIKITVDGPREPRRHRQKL
# T1 sequence (Q13951 2-135, chain 2 of 2): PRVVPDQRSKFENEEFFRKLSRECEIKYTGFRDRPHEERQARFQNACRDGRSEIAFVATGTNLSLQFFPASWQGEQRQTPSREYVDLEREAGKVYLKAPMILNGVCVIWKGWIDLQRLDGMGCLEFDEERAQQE
binder,measurement,setting,value
GM450Δ443/452 (dsDNA) DNA 1: AGATCTCTCACTGCGTAGAAAC DNA 2: AGGTTTCTACGCAGTGAGAGAT,binding result,[1],no binding
WT GM450 (dsDNA) DNA 1: AGATGTGTGGCTGCCCACAAAC DNA 2: AGGTTTGTGGGCAGCCACACAT,binding result,[2],binds
GM450Δ443 (dsDNA) DNA 1: AGATCTCTCACTGCCCACAAAC DNA 2: AGGTTTGTGGGCAGTGAGAGAT,binding result,[3],binds
GM450Δ452 (dsDNA) DNA 1: AGATGTGTGGCTGCGTAGAAAC DNA 2: AGGTTTCTACGCAGCCACACAT,binding result,[3],binds
Crystal palindrome (dsDNA) DNA 1: AGATGTGCGGTCGACCGCAAAC DNA 2: AGGTTTGCGGTCGACCGCACAT,binding result,[4],binds
